From US20130302399A1 (ALDERBIO, published 2013)

biological target: T1, human Proprotein Convertase Subtilisin-like/Kexin type 9 (human, UniProt Q8NBP7 31-692, limits assumed); assay: BLI (Octet QK), biotinylated antibody on streptavidin sensors, human PCSK9 in solution, 1:1 fit
T1 construct: Biotinylated in the ELISAs; unlabelled analyte in BLI and SPR; also called human PCSK9; PCSK9
Procedure: Binding affinities of monoclonal antibodies for PCSK9 were estimated using Bio-Layer Interferometry (BLI) on the Octet QK (ForteBio). Biotinylated antibody was immobilized at different densities to the surface of Streptavidin (SA) Biosensors. A dilution series of human PCSK9 prepared in 1× Kinetics Buffer (NaCl 0.0138 M; KCl 0.00027 M; 0.1 mg/mL BSA, 0.002% Tween and 0.005% Sodium Azide; pH 7.4, at 25° C.) purchased from the manufacturer (ForteBio) was used to query the antibodies. At our chosen concentrations of antigen (˜0.25 μg/mL-2 μg/mL) association times of 15 minutes and dissociation times of 25 minutes were used with the Octet Analysis Software (v6.4, ForteBio), to globally fit data using a 1:1 Langmuir binding model.

T1 sequence (Q8NBP7 31-692 limits assumed): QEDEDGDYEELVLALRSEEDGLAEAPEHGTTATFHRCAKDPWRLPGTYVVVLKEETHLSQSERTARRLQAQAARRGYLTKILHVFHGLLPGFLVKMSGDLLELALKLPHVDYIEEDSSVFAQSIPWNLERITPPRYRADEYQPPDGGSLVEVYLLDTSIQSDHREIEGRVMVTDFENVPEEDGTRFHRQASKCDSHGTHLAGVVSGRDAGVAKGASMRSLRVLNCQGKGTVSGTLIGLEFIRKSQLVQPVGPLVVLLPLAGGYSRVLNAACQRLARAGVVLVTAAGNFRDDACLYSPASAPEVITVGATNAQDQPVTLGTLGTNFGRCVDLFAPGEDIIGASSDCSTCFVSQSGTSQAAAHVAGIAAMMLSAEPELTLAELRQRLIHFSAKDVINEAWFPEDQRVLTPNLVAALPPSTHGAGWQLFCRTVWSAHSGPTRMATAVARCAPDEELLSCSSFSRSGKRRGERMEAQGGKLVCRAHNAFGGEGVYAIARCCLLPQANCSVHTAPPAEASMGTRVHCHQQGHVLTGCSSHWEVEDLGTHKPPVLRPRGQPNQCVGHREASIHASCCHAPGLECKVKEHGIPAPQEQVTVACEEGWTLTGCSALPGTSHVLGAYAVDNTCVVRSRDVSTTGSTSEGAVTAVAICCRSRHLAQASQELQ

Row | Kd [nM] | koff [s⁻¹] | kon [M⁻¹ s⁻¹] | Binder
1 | 5.87 | 0.000554 | 94400 | Ab3 (antibody, human IgG1, kappa, N297A, V domains shown, also called antibody Ab3) VH: QSVEESGGRLVTPGGSLTLTCTASGFSLSSYYMSWVRQAPGKGLEWIGIIYPSGSTYYASWAKGRFTISKTSTTVDLKITSPTVEDTATYFCARGGAYATLNLWGPGTLVTVSS VL: AVLTQTPSPVSAAVGGTVTISCQSSQSVYHNNLLSWYQQKPGQPPKLLIYDASKLTSGVSSRFSGSGSGTQFTLTISGVQCDDAATYYCLGGYDDDADNGFGGGTEVVVKR
2 | 0.6 | 6.63e-05 | 108000 | Ab20 (antibody, human IgG1, kappa, N297A, V domains shown, also called antibody Ab20) VH: EVQLVESGGGLVQPGGSLRLSCAASGIDLSSYAMGWVRQAPGKGLEYIGIIVSYGPTYYASWAKGRFTISRDNSKSTVYLQMNSLRAEDTATYFCARDLDAQSSGYYGAFNIWGQGTLVTVSS VL: DIQMTQSPSTLSASVGDRVTITCQASQSISTALAWYQQKPGKAPKLLIYAASPLASGVPSRFSGSGSGTEFTLTISSLQPDDFATYYCQSYYGSSNIAFGGGTKVEIKR

biological target: T1, human Proprotein Convertase …; assay: SPR (ProteOn XPR36), biotinylated antibody on neutravidin chip, human PCSK9 as analyte, 1:1 fit, mean of 4 densities
Procedure: Binding affinities of monoclonal antibodies for PCSK9 were estimated using Surface Plasmon Resonance (SPR) on the ProteOn XPR36 (Bio-Rad). Biotinylated antibody was immobilized at progressively increasing densities to the surface of Neutravidin (NLC) Chips. A dilution series of human PCSK9 prepared in 1×HBS-EP+Buffer (10 mM Hepes; 150 mM NaCl; 3 mM EDTA, 0.05% Polysorbate 20; pH 7.6 at 25° C.) purchased from Thermo Scientific and supplemented with 0.2 mg/mL Bovine Serum Albumin (BSA) from Jackson ImmunoResearch and 0.005% sodium azide from VWR was used to query the antibodies. At our chosen concentrations of antigen (˜0.08 μg/mL-6.7 μg/mL) association times of 4 minutes and dissociation times of 30-120 minutes were used with the ProteOn Manager Software (v3.1.0.6, Bio-Rad) to group and fit data using a 1:1 Langmuir binding model. Surfaces were regenerated between analyte queries and after binding antibody to the surface using 10 mM Glycine pH 2.0. Data across 4 different densities were averaged and a single KD and standard propagation of error calculated for each antibody.

Row | Kd [nM] | koff [s⁻¹] | kon [M⁻¹ s⁻¹] | Binder
3 | 0.61 | 0.000354 | 580000 | Ab21 (antibody, human IgG1, kappa, N297A, V domains shown, also called antibody Ab21) VH: QSVEESGGRLVTPGTPLTLTCTVSGFSLSSYAMNWVRQAPGKGLEWIGAIRSSGATFFASWVNGRFTISKTSTTVDLKITSPTPEDTATYFCARDTNDGWYINRLDLWGPGTLVTVSS VL: AAVLTQTPSPVSAAVGGTVSISCQSSKSVYSNYLSWFQQKPGQPPKFLIYKASTLASGVPSRFKGSGSGTQFTLTISDVQCDDAATYYCAGGDTNISDNAFGGGTEVVVKR
4 | 0.49 | 0.000259 | 529000 | Ab22 (antibody, human IgG1, kappa, N297A, V domains shown, also called antibody Ab22) VH: EVQLVESGGGLVQPGGSLRLSCAASGFSLSSYAMNWVRQAPGKGLEWIGAIRSSGATFFASSVNGRFTISRDNSKNTVYLQMNSLRAEDTAVYYCARDTNDGWYINRLDLWGQGTLVTVSS VL: AVLTQSPSTLSASVGDRVTITCQSSKSVYSNYLSWFQQKPGKAPKFLIYKASTLASGVPSRFSGSGSGTEFTLTISSLQPDDFATYYCAGGDTNIADNAFGGGTKVEIKR
5 | 0.04 | 3.71e-05 | 928000 | Ab23 (antibody, human IgG1, kappa, N297A, V domains shown, also called antibody Ab23) VH: QSLEESGGDLVKPGASLTLTCKASGFSFSSGYYMCWVRQAPGKGLEWIACIYAGSGGSTFFANWAKGRFTISKTSSTTVTLQMTSLTAADTATYFCARDGGYAGYGYAFFNLWGPGTLVTVSS VL: DVVMTQTPASVSEPVGGTVTIKCQASERIYSGLAWYQQKPGQPPKLLIYGASTLASGVPSRFKGSGSGTDFTLTISDLECDDAAIYYCQCTYYGSSYPNVFGGGTEVVVKR
6 | 0.09 | 6.16e-05 | 684000 | Ab24 (antibody, human IgG1, kappa, N297A, V domains shown, also called antibody Ab24) VH: QSLEESGGDLVKPGASLTLTCKASGFSFSSGYYMCWVRQAPGKGLEWIACIYAGSGGSTFFANWAKGRFTISKTSSTTVTLQMTSLTAADTATYFCARDGGYAGYGYAFFNLWGPGTLVTVSS VL: DVVMTQTPASVSEPVGGTVTIKCQASERIYSGLAWYQQKPGQPPKLLIYGASTLASGVPSRFKGSGSGTDFTLTISDLECDDAAIYYCQATYYGSSYPNVFGGGTEVVVKR
